The DeepSol protein solubility set

Assay: soluble on expression in E. coli; label from the status in PepcDB or PDB records

| Sequence | soluble on expression in E. coli |
| --- | --- |
| MPVGPPVPPKPSTPIMNGERLGEYGVGGHIGNGDVVPERRGILPASLREKINQKKELEGRATPSIEPDLVGRDRYDKASRCFSYVPAKSMQEAFERPRRTSFSRAIEKRENSVENVSQEEVARTEIPQSYQQNDISTPAKWDEQVEDAKQSALLEELARAPSAMQHNYWGNGEVDNVQVVDQAQRAVITPTSTLQRRPKPPARSGSYRTLNDDAYCSDMDELCDPEYYLNYNSNTAPLPPPRRQEQHAGTRSVQLPRKKMNFDAVTDPLDDVLESTKRLGSAYSVGDVRGGQQQQQEQHNASNDFNFSNTLNNTPTDYRQHYRNRNCQSVTTPRNHHFSTPSREQEADAADTWLSGKLKKVRSKRDIDPDIVRRRTQEKMLLEELKDSAANNDENQHNLPNGHARGAGLQNIDPLAEFRREEERLRNTRSPYGEERWRGRMRGKPPTPPPRESSASPVNSLPRGTPAHHMDRQRHNQSVPLPMHHRQFDEDFDVNSLFNFSHDPRQQSTTLERGGRSLSRGARIQDAYYASQQDLSANNRFNSGQERVAAAIYRAETAHRDMYASGTINRAETPGRYFPENSAVLERSSTPSFPVSRATPLPFHPLLYNNGERGGSGHAAGGGGGGHNGYSTMNNRSASPRLFGGSSTLSRRSSVNSVDILSEILILQTSYLSCSYILLYLWNFYSLAFASNFKTMSDTATTSTTVVIHLKRSNHDDASASATTAQLQQRSRYCDVSLASSEESSDLSDAEEKDDLIRRTITSSSKDTMEEGDDDDEEEFDDVVMEEDVGGGTDANEQFSRVIQRQISGAGGGILKKSNGKDTSEIIHHHPLFVKDTSKYWYKPTISREQAINMLRDKPPGTFVVRDSNSFPGAFGLALKVSTPPPGVNPGDGSELVRHFLIEPSPKGVKLKGCNNEPVFGSLSALVYQHSITALALPTKLVLPDFDPAATPEHLSATQALLEQGAACNVVYVGSVDVESLTGNECVKRSIATCSQRAINGDSRAVSVHFKVSSQGVTLTDNTRKVFFRRHFNVQSVIFAGMDPIERRFENTRALGFHDGCIAQARLFAFVARIPSSSENACHVFAELEPEQPGSAVVNFINKVMLAQKNRS | not soluble |
| MELKTSDVAARLGVSPKTIQRWVRKYDIPLRRNEAGHYLFDEKTVALLERVKFEQGAAMEAPPTPKRPPTPLRNNIPIDALHESIEPEIARVSSRLDQLERQLEQKADDVVSIQLLHHRQEMEEIVARLTALEQLVARLEQQLNTRPPAPHEPPEETKQKRRGLGRVMGLFA | not soluble |
| KTISLYKDSIPKEKTEGTDAILISDNQLINQLQTAAKTSSSQNKANTAAITFKQSNKSETDQSTTSQVIGYTTTASLKADKKNIFDVKKLNNEKSERKIIVGATVETLNQANTLQANEAIIKPAPGKYQSTDSHKVMITQGPNIVGIHANEKEDKETQKFINW | soluble |
| MGSDKIHHHHHHMNTRNDNSKILEIYKMKLFGELVKAVWNDDIEDIENLPNKILNEDLKDNLNNYFSGKFDKDTMVNLIRVTMGLDVTEDTDKNLKESLHEAVNLDEVKRPIISVISDACKYCDENNKEDESCKIRSKHINCNEEDVCSACGDCVSRCKLGAISDKIEFIPMIKLLKDIKSPVYAIVAPAFVGQFGKDVSPGKLRTALKKIGFEDMIEVALAADMLTAKEAYDYYEHMKKDEEGCFITSCCCPIWVSLIQNSFPQILENVSPSVSPMIACGRAVKILNPDAKVVFIGPCMAKKKEAMLEDIKDAVDFVLTFKELQEIFDALELNPAIMDESNRVEASLSGRVYARTGGVSKAVKLSVRRIDKNIKFEEKAFEGTKECMDGLKKVLNKEIEATFIEGMGCVGGCVGGPKRILSVEEGTKNVDEYSESTNMETPFDNLNVLQFLTSLGIKRVESLGEKEEEKVKKIFSRDIKSNKKENKYKK | not soluble |
| MEKIAVVGAGITGLFTAYYLSASGFDVEVFDKGDIASGTSGKFHGMLHSGARYAVTDKVSASECISENNTISSFARWFINDTGGYFVSSNREESDYGDTLTKACNDAGIPNYDIDVDEFKKIEPNVKNVDRVIHVPDKVIRAYEFSAAVAAEAFMNGTKFRLYSPVASVSEKGGKYVLGIERNGSLHYEHFDLIVNATGPFSGEFLKLAGYGGSPVMPSAGIMVVFSKPIVRSIINRMREPSDADIMVPYDGLSILGTSAVIVDDPENFSIDSEDVEAMIEDMSSLIPLIRNVNYSRTYYSVRPLLEDEGDDARKASRSFRIIKNGEGVFTVVGGKFTTGRLIGEHVAKEISKETGATIRIENPDLNSTYERFIEKYGRDDKYIAKAMSRIGTIDEENAMRSVAYAISTIIEGSLEHHHHHH | not soluble |
| MDMDREQSVQHFLDLIKKSHRGKFKIYIGMIAGVGKSYRMLQEAHELLENGVDVQIGYIETHGRAGTEALMQGLPVIPRRKIFYKGKELEEMDVDAIIRLHPEIVIVDELAHTNVEGSLNEKRWQDVMTLLDEGINVISAINIQHIESVNEEVQEITGIEVKERVPDSVLQEADEVVNIDLTAEELISRLKAGKIYRPEKIQTALDNFFRTENILQLRELALKEVALRVEKKVENEVVMGVSVGIRHEKFMACISSHEKTPRRIIRKAARLATRYNTTFVALYVQTPRESMDRIDLASQRYLLNHFKLVAELGGEVIQVQSKDILGSIVKVCRDKQISSVCMGTPNLRFPHAICSILGYRKFLNNLSQANVDLIILA | not soluble |
| MSLDKFQLKGKVALVTGCKRGIGKAMAIGLAEAGADIIGVSASLELEGSSVEQAIRATGRNFKAYQCDFSDRKSLYNFINSVKADYSRIDILVNNAGTILRTPAAEHPDEMWDKVIEVNQNAQFILTRELGKEMVSRGEGKVIFTASLLTFQGGITVPGYAASKGAIGQMTMAFANEWASKGVNVNAIAPGYISTDNTEALRNDPDRSASILSRIPAGRWGEAEDFAGPVVFLASEAAAYMHGSIMLVDGGWMGREGHHHHHH | soluble |
| MKIGFIGAGSMGGAMIKGLLKAEAVKKEHLYVKGGSSGTAEALQKEWGFQLVTDYALFQECKVIFIATGAKVVLPVLQELAPHFSNESLLISVATGHTIQEAQMALGNKEAKVVHAIPNTPVSVNQGVIGVALAPTIEGQTKDLAMELLATLGLVKEIREAQLETFGTVAGCSPAFVDIFMEALGDAAVLEGLPRDLSYEIVAQMIKGTATLALDTKKHPGALKDEVTSPGGSTIRGVVALEKNGFRYAVMDAVQQANHE | soluble |
| MGSDKIHHHHHHMWMNGFARWMDKLKVLSSEAGSKACWGYDACPAGDGIIASIDGYSMDSSRLPWMSLGDWGWKSVVAAASDVAASGGAPFHVMYSLGLDSVERAVDVARGVGEAAVWMGATVGKSDFNTSKSPWIDVAVLGKAEKPLGRFGAKPGMTLVQVGASGYGLLSHLTLQGRLSRDDLPGPVVEYTRRPKPPLRIGPELSSCEAAASIDNSDGLGASLHLLGVESGVSVVIDDILVDRHVEKVLDELGLEKWAVLQSWEDYNIVAVGGDGSIDCILRWCRRLNIECATVGYTSSDGAGRVLIEGGRREFRVSGWTWL | not soluble |
| MRSDVVARAMRLIADGTVDRDGVSGLAAQLGYTIRQLERLLQAVVGAGPLALARAQRMQTARVLIETTNLPFGDVAFAAGFSSIRQFNDTVRLACDGTPTALRARAAARFESATASAGTVSLRLPVRAPFAFEGVFGHLAATAVPGCEEVRDGAYRRTLRLPWGNGIVSLTPAPDHVRCLLVLDDFRDLMTATARCRRLLDLDADPEAIVEALGADPDLRAVVGKAPGQRIPRTVDEAEFAVRAVLAQQVSTKAASTHAGRLVAAYGRPVHDRHGALTHTFPSIEQLAEIDPGHLAVPKARQRTINALVASLADKSLVLDAGCDWQRARGQLLALPGVGPWTAEVIAMRGLGDPDAFPASDLGLRLAAKKLGLPAQRRALTVHSARWRPWRSYATQHLWTTLEHPVNQWPPQEKIALEHHHHHH | not soluble |
| MSLDDEPLLPDFEQLGYPRNLPTLVLGLRGMICEITHSKKNGWGIVKRPGVDKFFNILKNYYEIVIWSDESFPIPHEVLEKWNLPIIGILNKNHFSKINGKLFKNLSRLGRNLNRVILVDNESYSANIQYDNSIVLPIFKGDPYDNELNSIIDLLKAAAMQPGDIREYLKRFRCNDTNIGDEGHHHHHH | soluble |
| MKALLSIEMDMQVPFHDVDSMGITWHGNYLRYFEVARCKLLDELGYNYRQMRASNYAWPIIDVQIKYVKPSTFEQHITVRAELVEWENRLKINYQIRDTATGERITKGYTIQAAVDMTSLEHHHHHH | not soluble |
| MGSDKIHHHHHHMDKRIFGIETEFGISYSSPDSRPLAPEEVARYLFRKVVSWGRSSNVFLTNGSRLYLDVGSHPEYATAECDDLGQLIAHDRAGELILDDLVDEAQERLAAEGFNGTVYLFKNNTDSAGNSYGSHENYLIPRRGEFSRLAEILIPFLVTRQLIAGAGKILKTPHGATFAFSQRADHIWEGVSSATTRSRPIINTRDEPHADAEFYRRLHVIVGDSNMSETTALMKVGTVDLILRMIEAGVIMRDMRMENPIRSIREISHDLSGRALIRLANGRQLTALEIQREYLNKVTSFVAENGAHNQHVPLILDLWERTLTAIESGDTSTIDTEIDWAIKKKLMDSYRKRHGLGLDAPRIAQLDLTYHDISRTRGLYYLLQSRGAVRRVVDDTAVKDAVDAPPQTTRAKLRGDFVRRAQELGRDYTVDWVHLKLNDRAHQTILCKDPFRNVDERVDALLDSMG | not soluble |
| MSLKITDVDVWVVNLPLVNPFTSSFETKTGETRTVVRVRTDSGVEGWGETMWGAPVAAIVRRMAPDLIGTSPFALEAFHRKQHMVPFFYGYLGYAAIAAVDVACWDAMGKATGQSVTDLLGGAVRDEVPITALITRADAPGATPADLPKAMAEHAVRVVEEGGFDAVKLKGTTDCAGDVAILRAVREALPGVNLRVDPNAAWSVPDSVRAGIALEELDLEYLEDPCVGIEGMAQVKAKVRIPLCTNMCVVRFEDFAPAMRLNAVDVIHGDVYKWGGIAATKALAAHCETFGLGMNLHSGGELGIATAAHLAVVSSTPVLSRAIDSMYYLHADDIIEPLHLENGRLRVPSGPGLGVSVDEDKLRHYAGVNERDGDLTGEGHHHHHH | soluble |
| MAHHHHHHMEPYASPAAVPPPHVVYDALSKAQKAAPQLRPIPAFEVYKVAREEELAAYRMLCRVLFMHHGTPLPKAQQRILDDMGEDLCIGQTRQGLEKEMAEQDKVLQGIRKSGVLRRRGDFTDGVEEMTVEDYLAEAPKDDGNGLFMPTSKVRRVDGADSGATRATVIAAAAGLGAKRKGNVHAAVSKLAKEAETAGKSLLYASSAQEEQQLIQVLQQKRELLVALREELTEA | not soluble |
| GLIDSHVHPVVGDYTPRQQQLHWIDSTLHGGVTTLISAGEVHMPGRPKDIVGLKAMAIAAQRWYENFRPSGVKVMAGAPVIEHGMVEQDFKELADAGVKLLGEVGLGTVKDGKTARQMVDWARKYGIQSTIHTGGPSIPGSGLIDADMVLETGTDVIGHINGGHSALPDDQIMCLCESCTAGLEIVHNGNERAALLTLNTARELKQMDRIILGTDGPAGSGVQPLGILRMVAMLSALGNVPAEIAFCFANGNTARQRELDTGLLERGYAADFVLMDQAQHAPGKTILESVQLGNLPGVGMTVIDGVVCSERSRNTPPATRLPRIVS | not soluble |
| MGSDKIHHHHHHMEQAATQRLATGIPGLDEICGGGLVPRYAYLVRGGPGTGKTTLGLHFLAAGAANGETTLFISLEETESKIRWNAAQTGINLNQVHILDLSPSSDFFANTQIYDIFSPAEVEREPITRQIVETVQRLQPTRVFLDSITQFRYLTPDTFQFRKQVISFLRFLAEQRTTVVFSAENSAAFPDDDLQYIADGIISLELTNTGRYLTVSKMRGSSFVSGRHAMRLTTQGLQVFPRIIPTPLVAGHAFTLIPSGVPELDELLNGGVERGTITLITGPSGVGKTTLGFQFMKEAASRGERSMVFSFEEEIEIMQQRCEAVNIPVRAMQKQQLLRIEKIEPLQYNPAEFAQHVRYFIEQEQIKVVMIDSVTGYRLCMHGEDLISQLHALSKYLQSRGVTVFLIMDTTDIVGDFKVTEIGASYLGDNIIFLRFLEIEGELRKAIGVLKKRLGDFEKTLREFAISRYGIKVGKPLTNLRGILSGMPTWVDKA | not soluble |
